The text below walks through data of US20250352579A1 (HEBEI SENLANG BIOTECHNOLOGY, published 2025).

Assay [1] concerns the target T1, CD7 on cells (K562-CD7 positive cells; KG-1a-GFP-Luc; CCRF-CEM) (UniProt P09564 26-240, limits assumed).
T1 sequence (looked up): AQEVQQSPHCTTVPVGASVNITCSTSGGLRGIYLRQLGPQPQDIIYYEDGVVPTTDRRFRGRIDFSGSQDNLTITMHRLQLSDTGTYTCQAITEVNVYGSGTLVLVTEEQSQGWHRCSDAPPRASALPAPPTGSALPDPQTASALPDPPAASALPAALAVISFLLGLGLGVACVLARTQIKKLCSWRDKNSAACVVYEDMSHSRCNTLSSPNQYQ
The assay is described as follows: cell-based or functional assay.

Another assay deals with T2, CD7-His protein (UniProt P09564 26-180, limits assumed).
T2 construct: extracellular domain; also called recombinant CD7-His protein; CD7 antigen; not shown: His tag
T2 sequence (looked up): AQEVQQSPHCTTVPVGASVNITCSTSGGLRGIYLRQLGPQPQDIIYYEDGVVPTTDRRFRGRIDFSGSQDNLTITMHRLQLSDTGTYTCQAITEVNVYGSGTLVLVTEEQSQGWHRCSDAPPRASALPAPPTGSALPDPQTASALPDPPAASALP
Nature of the assay: SPR, CD7-His immobilised on CM5 chip by amino coupling, antibody as analyte. Here is the method:
In this example, the affinities of the antibodies were measured using the SPR method (surface plasmon resonance method) by immobilizing the CD7-His protein prepared in Example 1 on the CM5 chip through amino coupling method, using the antibodies (dVHH-D, dVHH-E, VHH10, and VHH12) as analytes for the experiments to detect the affinity of each antibody to the CD7 antigen.
For orientation: Surface plasmon resonance follows binding to a sensor surface in real time, without labels.

Residue numbers refer to the chain shown, from its start.

B1: VHH06 single VHH CAR (other)
chain: QVQLQESGGGLVQAGGSLRLSCAASGRTFSSYNMGWFRQAPGAEREFVAAISRGGGSTYYADSVKGRFTISRDNAKNTVYLQMNSLRPEDTAVYYCADSGARAYSGSYLDFGSWGQGTQVTVSSTTPAPRPPTPAPTIASQPLSLRPEACRPAAGGAVHTRGLDFACDIYIWAPLAGTCGVLLLSLVITLYCKRGRKKLLYIFKQPFMRPVQTTQEEDGCSCRFPEEEEGGCELRVKFSRSADAPAYKQGQNQLYNELNLGRREEYDVLDKRRGRDPEMGGKPRRKNPQEGLYNELQKDKMAEAYSEIGMKGERRRGKGHDGLYQGLSTATKDTYDALHMQALPPR
With B1, the “killing ratio, CAR-T cells on KG-1a-GFP-Luc, E:T=3:1, 4 h, luciferase” value (from here on “killing ratio, CAR-T cells”) in assay [1] amounted to 62.2%.

B2: VHH14 single VHH CAR (other)
chain: QVQLQESGGGLVQPGGSLRLSCTASGLTLGYYAIGWFRQAPGKEREFVSTISASGGMTYYADSVKGRFTISRDNAKNTVYLEMNSLKPEDTAVYYCAAEYLGNLRHFRGDHWGKGTQVTVSSTTPAPRPPTPAPTIASQPLSLRPEACRPAAGGAVHTRGLDFACDIYIWAPLAGTCGVLLLSLVITLYCKRGRKKLLYIFKQPFMRPVQTTQEEDGCSCRFPEEEEGGCELRVKFSRSADAPAYKQGQNQLYNELNLGRREEYDVLDKRRGRDPEMGGKPRRKNPQEGLYNELQKDKMAEAYSEIGMKGERRRGKGHDGLYQGLSTATKDTYDALHMQALPPR
Take B2: the “killing ratio, CAR-T cells” value in assay [1] is 60.4%.

B3: VHH19 single VHH CAR (other)
chain: B2 chain with L27R, T28A, L29F, G30S, Y31M, A33V, I34M
As to B3, in assay [1], the “killing ratio, CAR-T cells” value is 61.7%.

B4: VHH12 single VHH CAR (other)
chain: QVQLQESGGGLVQPGGSLRLSCAASGSTLDYYAIGWFRQAPGKEREGISCISNSGGMTNYADSVKGRFTISRDNAKNTVYLQMNSLKPEDTAVYYCAAGPAWSYCSGYVPAGLDKFGSWGQGTQVTVSSTTPAPRPPTPAPTIASQPLSLRPEACRPAAGGAVHTRGLDFACDIYIWAPLAGTCGVLLLSLVITLYCKRGRKKLLYIFKQPFMRPVQTTQEEDGCSCRFPEEEEGGCELRVKFSRSADAPAYKQGQNQLYNELNLGRREEYDVLDKRRGRDPEMGGKPRRKNPQEGLYNELQKDKMAEAYSEIGMKGERRRGKGHDGLYQGLSTATKDTYDALHMQALPPR
As for B4, the “killing ratio, CAR-T cells” value in assay [1] stood at 78.2%.

B5: dVHH-D (other)
chain (part 1 of 2): QVQLQESGGGLVQTGGSLRLSCEASERTFSSNAVGWFRQAPGKEREFVAAITWSVGTTYYADSVKGRFTISRDNAKNTVYLQMNSLKPEDTAVYYCAASGARHYSGSYLDFGSWGQGTQVTVSS
chain (part 2 of 2): QVQLQESGGGLVQPGGSLRLSCAASGSTLDYYAIGWFRQAPGKEREGISCISNSGGMTNYADSVKGRFTISRDNAKNTVYLQMNSLKPEDTAVYYCAAGPAWSYCSGYVPAGLDKFGSWGQGTQVTVSS
notes: also called VHH-10+VHH-12; double VHH antibody dVHH-D; not shown: Linker
As to B5, in the assay with CD7-His protein, the affinity, expressed as Kd, was 3.35 nM; the koff (as a rule, the rate constant with which the complex falls apart) came out at 0.000754 s⁻¹; the kon (in general, the second-order rate constant of association) worked out at 225000 M⁻¹ s⁻¹.

B6: VHH12 (VHH)
VHH: B5 chain (part 2 of 2)
notes: Variable region only; also called anti-CD7 nanobody VHH12
Turning to B6, in the assay with CD7-His protein, the Kd (usually the constant that tells how readily two partners part at equilibrium) was found to be 1.34 nM, the koff was found to be 9.95e-05 s⁻¹ and the kon was 74200 M⁻¹ s⁻¹.

B7: dVHH-E (other)
chain (part 1 of 2): B5 chain (part 1 of 2)
chain (part 2 of 2): B5 chain (part 1 of 2)
notes: also called VHH-10+VHH-10; double VHH antibody dVHH-E; not shown: Linker
As for B7, in the assay with CD7-His protein, the Kd is 4.51 nM, the koff worked out at 0.000557 s⁻¹ and the kon was 123000 M⁻¹ s⁻¹.

B8: VHH10 (VHH)
VHH: B5 chain (part 1 of 2)
notes: Variable region only; also called anti-CD7 nanobody VHH10
In the assay with CD7-His protein, B8 returned a Kd of 99.9 nM, a koff of 0.0164 s⁻¹ and a kon of 164000 M⁻¹ s⁻¹.

B9: VHH10 single VHH CAR (other)
chain: QVQLQESGGGLVQTGGSLRLSCEASERTFSSNAVGWFRQAPGKEREFVAAITWSVGTTYYADSVKGRFTISRDNAKNTVYLQMNSLKPEDTAVYYCAASGARHYSGSYLDFGSWGQGTQVTVSSTTPAPRPPTPAPTIASQPLSLRPEACRPAAGGAVHTRGLDFACDIYIWAPLAGTCGVLLLSLVITLYCKRGRKKLLYIFKQPFMRPVQTTQEEDGCSCRFPEEEEGGCELRVKFSRSADAPAYKQGQNQLYNELNLGRREEYDVLDKRRGRDPEMGGKPRRKNPQEGLYNELQKDKMAEAYSEIGMKGERRRGKGHDGLYQGLSTATKDTYDALHMQALPPR
B9: the “killing ratio, CAR-T cells” value in assay [1] worked out at 91.4%.

B10: VHH07 single VHH CAR (other)
chain: QVQLQESGGGLVQAGGSLRLSCAASGRTFSSYVMKWFRQAPGKGREFVAGISWSGSLTSYSDSVKGRFTISRDNAKNTVYLQMNSLKPEDTAVYYCAAGEAATMSDTDYGMDYWGKGTQVTVSSTTPAPRPPTPAPTIASQPLSLRPEACRPAAGGAVHTRGLDFACDIYIWAPLAGTCGVLLLSLVITLYCKRGRKKLLYIFKQPFMRPVQTTQEEDGCSCRFPEEEEGGCELRVKFSRSADAPAYKQGQNQLYNELNLGRREEYDVLDKRRGRDPEMGGKPRRKNPQEGLYNELQKDKMAEAYSEIGMKGERRRGKGHDGLYQGLSTATKDTYDALHMQALPPR
Consider B10, for which the “killing ratio, CAR-T cells” value in assay [1] came to 61.6%.

B11: VHH08 single VHH CAR (other)
chain: QVQLQESGGGLVQPGGSLRLSCAASGSIFSIHAMAWYRQAPGKQRELVASITVGGRTNYVDSVLGRFTISRDNAKNTVYLQMNSLKPEDTAVYYCNSLLWAGLRDSWGPGTQVTVSSTTPAPRPPTPAPTIASQPLSLRPEACRPAAGGAVHTRGLDFACDIYIWAPLAGTCGVLLLSLVITLYCKRGRKKLLYIFKQPFMRPVQTTQEEDGCSCRFPEEEEGGCELRVKFSRSADAPAYKQGQNQLYNELNLGRREEYDVLDKRRGRDPEMGGKPRRKNPQEGLYNELQKDKMAEAYSEIGMKGERRRGKGHDGLYQGLSTATKDTYDALHMQALPPR
For B11, in assay [1], the “killing ratio, CAR-T cells” value was found to be 68.5%.

B12: VHH20 single VHH CAR (other)
chain: QVQLQESGGGLVQPGGSLRLSCAASGTTLDDYAVGWFRQAPGKEREGVACISASELSTYYADSVKGRFTISRDNAKNTMYLQMNSLKPEDTAVYYCAARVGRIVDVTSTQYQYWGQGTQVTVSSTTPAPRPPTPAPTIASQPLSLRPEACRPAAGGAVHTRGLDFACDIYIWAPLAGTCGVLLLSLVITLYCKRGRKKLLYIFKQPFMRPVQTTQEEDGCSCRFPEEEEGGCELRVKFSRSADAPAYKQGQNQLYNELNLGRREEYDVLDKRRGRDPEMGGKPRRKNPQEGLYNELQKDKMAEAYSEIGMKGERRRGKGHDGLYQGLSTATKDTYDALHMQALPPR
B12: the “killing ratio, CAR-T cells” value in assay [1] was 9.38%.
